From patent US8642284B1, “Methods for identifying agents that alter NAD-dependent deacetylation activity of a SIR2 protein” (Massachusetts Institute of Technology, priority 1999, dated 2014)

What follows are molecules tested on histone H2B (assay: ADP-ribosylation activity of wild type and mutant recombinant mSir2α proteins on histones). Settings: 10 μg recombinant protein; H2B radioactivity, wild type = 100%.
Format: biochemical, calf
Method: Site-directed mutagenesis of mSIR2α core domain was performed with the GeneEditor™ system (Promega, Madison, Wis.) according to the procedure provided by the manufacturer. The mutant recombinant proteins were prepared in the same way as described above.
The typical reaction was performed in 50 or 100 μl of the buffer containing 5 mM Tris-HCl [pH8.0 or 9.0], 4 mM MgCl2, 0.2 mM DTT, 1 μM cold β-NAD^+ (SIGMA®) and 8 μCi nicotinamide adenine dinucleotide 5′[α-^32P]triphosphate (NAD) as a donor of ADP-ribose (˜1000 Ci/mmol, Amersham Pharmacia Biotech). To check the sensitivity to poly- or mono-ADP-ribosylation inhibitors, 3-aminobenzamide (ICN Pharmaceuticals, CA), benzamide, novobiocin and coumermycin A1 (SIGMA®) were added to the reactions prior to adding Sir2 proteins, respectively. The wild type or mutant recombinant proteins (0.5-1 μg for ySir2p and 10 μg of mSir2α) were added with 4 μg of each histone purchased from Roche Molecular Biochemicals (Indianapolis, Ind.). For the peptide experiments, 5-10 μg of unacetylated or acetylated N-terminal tail peptides (amino acids 1-20) of H3 and H4 purchased from Upstate Biotechnology™ (Lake Placid, N.Y.) were used as substrates of the yeast and mouse Sir2 recombinant proteins.
To analyze histone modification, 25 μl of 100% trichloroacetic acid (TCA) solution was mixed to the reaction mixture and left on ice for 15 min. The protein precipitates were centrifuged at 4° C. and washed with 5 or 20% TCA solution twice. The pellets were dissolved in 15 μl of Leammli's sample buffer and boiled for 1.5 min. The proteins were electrophoresed in a 10-20% gradient SDS-PAGE gel. The gel was stained with COOMASSIE® Brilliant Blue R-250 (GibcoBRL Life Technologies™, Frederick, Md.) to check equal loading of histones, dried, and exposed to KODAK® X-OMAT film.
Aliquots of recombinant protein (10 μg) of the wild type recombinant mSir2α (WT), the pET control pET, and the mutant proteins (G253A, G255A, S257A, I262A, F265A, R266A, G270A, P285A, T336A, H355A) were incubated with H2B or H3. […] All of the mutations of highly conserved residues dramatically affected the mono-ADP-ribosylation activity of mSir2α (FIG. 6B). The results were similar using H2B or H3.
The radioactivity of H2B modified by the wild type is assigned to 100% and other data were normalized according to the wild type activity and blots quantitated by Phosphorimaging. The averages and the standard deviations were calculated from two independent experiments. In the core domain of ySir2p, mutations on highly conserved residues also affected the mono-ADP-ribosylation activity. Therefore, the core domain of Sir2 proteins contain the catalytic activity of mono-ADP-ribosylation and the evolutionarily conserved residues in the core domain are essential for this activity.

Molecule	mono-ADP-ribosylation activity compared to the wild type activity
P285A: recombinant mSir2α core domain mutant, residue changed to alanine (protein, left off: small tags and cut ends, recombinant mSir2α core domain mutant, residue changed to alanine) MADEVALALQAAGSPSAAAAMEAASQPADEPLRKRPRRDGPGLGRSPGEPSAAVAPAAAGCEAASAAAPAALWREAAGAAASAEREAPATAVAGDGDNGSGLRREPRAADDFDDDEGEEEDEAAAAAAAAAIGYRDNLLLTDGLLTNGFHSCESDDDDRTSHASSSDWTPRPRIGPYTFVQQHLMIGTDPRTILKDLLPETIPPPELDDMTLWQIVINILSEPPKRKKRKDINTIEDAVKLLQECKKIIVLTGAGVSVSCGIPDFRSRDGIYARLAVDFPDLPDAQAMFDIEYFRKDPRPFFKFAKEIYPGQFQPSLCHKFIALSDKEGKLLRNYTQNIDTLEQVAGIQRILQCHGSFATASCLICKYKVDCEAVRGDIFNQVVPRCPRCPADEPLAIMKPEIVFFGENLPEQFHRAMKYDKDEVDLLIVIGSSLKVRPVALIPSSIPHEVPQILINREPLPHLHFDVELLGDCDVIINELCHRLGGEYAKLCCNPVKLSEITEKPPRPQKELVHLSELPPTPLHISEDSSSPERTVPQDSSVIATLVDQATNNNVNDLEVSESSCVEEKPQEVQTSRNVENINVENPDFKAVGSSTADKNERTSVAETVRKCWPNRLAKEQISKRLEGNQYLFVPPNRYIFHGAEVYSDSEDDVLSSSSCGSNSDSGTCQSPSLEEPLEDESEIEEFYNGLEDDTERPECAGGSGFGADGGDQEVVNEAIATRQELTDVNYPSDKS	5%
G253A: recombinant mSir2α core domain mutant, glycine 253 changed to alanine (protein, left off: small tags and cut ends, recombinant mSir2α core domain mutant, glycine 253 changed to alanine) MADEVALALQAAGSPSAAAAMEAASQPADEPLRKRPRRDGPGLGRSPGEPSAAVAPAAAGCEAASAAAPAALWREAAGAAASAEREAPATAVAGDGDNGSGLRREPRAADDFDDDEGEEEDEAAAAAAAAAIGYRDNLLLTDGLLTNGFHSCESDDDDRTSHASSSDWTPRPRIGPYTFVQQHLMIGTDPRTILKDLLPETIPPPELDDMTLWQIVINILSEPPKRKKRKDINTIEDAVKLLQECKKIIVLTAAGVSVSCGIPDFRSRDGIYARLAVDFPDLPDPQAMFDIEYFRKDPRPFFKFAKEIYPGQFQPSLCHKFIALSDKEGKLLRNYTQNIDTLEQVAGIQRILQCHGSFATASCLICKYKVDCEAVRGDIFNQVVPRCPRCPADEPLAIMKPEIVFFGENLPEQFHRAMKYDKDEVDLLIVIGSSLKVRPVALIPSSIPHEVPQILINREPLPHLHFDVELLGDCDVIINELCHRLGGEYAKLCCNPVKLSEITEKPPRPQKELVHLSELPPTPLHISEDSSSPERTVPQDSSVIATLVDQATNNNVNDLEVSESSCVEEKPQEVQTSRNVENINVENPDFKAVGSSTADKNERTSVAETVRKCWPNRLAKEQISKRLEGNQYLFVPPNRYIFHGAEVYSDSEDDVLSSSSCGSNSDSGTCQSPSLEEPLEDESEIEEFYNGLEDDTERPECAGGSGFGADGGDQEVVNEAIATRQELTDVNYPSDKS	completely abolished the activity
I262A: recombinant mSir2α core domain mutant, residue changed to alanine (protein, left off: small tags and cut ends, recombinant mSir2α core domain mutant, residue changed to alanine) MADEVALALQAAGSPSAAAAMEAASQPADEPLRKRPRRDGPGLGRSPGEPSAAVAPAAAGCEAASAAAPAALWREAAGAAASAEREAPATAVAGDGDNGSGLRREPRAADDFDDDEGEEEDEAAAAAAAAAIGYRDNLLLTDGLLTNGFHSCESDDDDRTSHASSSDWTPRPRIGPYTFVQQHLMIGTDPRTILKDLLPETIPPPELDDMTLWQIVINILSEPPKRKKRKDINTIEDAVKLLQECKKIIVLTGAGVSVSCGAPDFRSRDGIYARLAVDFPDLPDPQAMFDIEYFRKDPRPFFKFAKEIYPGQFQPSLCHKFIALSDKEGKLLRNYTQNIDTLEQVAGIQRILQCHGSFATASCLICKYKVDCEAVRGDIFNQVVPRCPRCPADEPLAIMKPEIVFFGENLPEQFHRAMKYDKDEVDLLIVIGSSLKVRPVALIPSSIPHEVPQILINREPLPHLHFDVELLGDCDVIINELCHRLGGEYAKLCCNPVKLSEITEKPPRPQKELVHLSELPPTPLHISEDSSSPERTVPQDSSVIATLVDQATNNNVNDLEVSESSCVEEKPQEVQTSRNVENINVENPDFKAVGSSTADKNERTSVAETVRKCWPNRLAKEQISKRLEGNQYLFVPPNRYIFHGAEVYSDSEDDVLSSSSCGSNSDSGTCQSPSLEEPLEDESEIEEFYNGLEDDTERPECAGGSGFGADGGDQEVVNEAIATRQELTDVNYPSDKS	completely abolished the activity
S257A: recombinant mSir2α core domain mutant, residue changed to alanine (protein, left off: small tags and cut ends, recombinant mSir2α core domain mutant, residue changed to alanine) MADEVALALQAAGSPSAAAAMEAASQPADEPLRKRPRRDGPGLGRSPGEPSAAVAPAAAGCEAASAAAPAALWREAAGAAASAEREAPATAVAGDGDNGSGLRREPRAADDFDDDEGEEEDEAAAAAAAAAIGYRDNLLLTDGLLTNGFHSCESDDDDRTSHASSSDWTPRPRIGPYTFVQQHLMIGTDPRTILKDLLPETIPPPELDDMTLWQIVINILSEPPKRKKRKDINTIEDAVKLLQECKKIIVLTGAGVAVSCGIPDFRSRDGIYARLAVDFPDLPDPQAMFDIEYFRKDPRPFFKFAKEIYPGQFQPSLCHKFIALSDKEGKLLRNYTQNIDTLEQVAGIQRILQCHGSFATASCLICKYKVDCEAVRGDIFNQVVPRCPRCPADEPLAIMKPEIVFFGENLPEQFHRAMKYDKDEVDLLIVIGSSLKVRPVALIPSSIPHEVPQILINREPLPHLHFDVELLGDCDVIINELCHRLGGEYAKLCCNPVKLSEITEKPPRPQKELVHLSELPPTPLHISEDSSSPERTVPQDSSVIATLVDQATNNNVNDLEVSESSCVEEKPQEVQTSRNVENINVENPDFKAVGSSTADKNERTSVAETVRKCWPNRLAKEQISKRLEGNQYLFVPPNRYIFHGAEVYSDSEDDVLSSSSCGSNSDSGTCQSPSLEEPLEDESEIEEFYNGLEDDTERPECAGGSGFGADGGDQEVVNEAIATRQELTDVNYPSDKS	completely abolished the activity
G255A: recombinant mSir2α core domain mutant, residue changed to alanine (protein, left off: small tags and cut ends, recombinant mSir2α core domain mutant, residue changed to alanine) MADEVALALQAAGSPSAAAAMEAASQPADEPLRKRPRRDGPGLGRSPGEPSAAVAPAAAGCEAASAAAPAALWREAAGAAASAEREAPATAVAGDGDNGSGLRREPRAADDFDDDEGEEEDEAAAAAAAAAIGYRDNLLLTDGLLTNGFHSCESDDDDRTSHASSSDWTPRPRIGPYTFVQQHLMIGTDPRTILKDLLPETIPPPELDDMTLWQIVINILSEPPKRKKRKDINTIEDAVKLLQECKKIIVLTGAAVSVSCGIPDFRSRDGIYARLAVDFPDLPDPQAMFDIEYFRKDPRPFFKFAKEIYPGQFQPSLCHKFIALSDKEGKLLRNYTQNIDTLEQVAGIQRILQCHGSFATASCLICKYKVDCEAVRGDIFNQVVPRCPRCPADEPLAIMKPEIVFFGENLPEQFHRAMKYDKDEVDLLIVIGSSLKVRPVALIPSSIPHEVPQILINREPLPHLHFDVELLGDCDVIINELCHRLGGEYAKLCCNPVKLSEITEKPPRPQKELVHLSELPPTPLHISEDSSSPERTVPQDSSVIATLVDQATNNNVNDLEVSESSCVEEKPQEVQTSRNVENINVENPDFKAVGSSTADKNERTSVAETVRKCWPNRLAKEQISKRLEGNQYLFVPPNRYIFHGAEVYSDSEDDVLSSSSCGSNSDSGTCQSPSLEEPLEDESEIEEFYNGLEDDTERPECAGGSGFGADGGDQEVVNEAIATRQELTDVNYPSDKS	completely abolished the activity
